Measured values as given in patent publication US20230099801A1, “RESTORATION OF T CELL ACTIVITY VIA THE CD39/CD73 AXIS” (INNATE PHARMA, priority 2017, published 2023).
“Also recorded” adds a separate entry of the source.

Legend:
allogenic CD4 T cells = assay: Mixed lymphocytes reaction (MLR) of ATP-activated MoDC with allogenic CD4 T cells; format: cell-based, human; conditions: MoDC activated in presence of ATP
Description: Briefly, human monocytes were purified from human healthy blood and differentiated into MoDC in presence of GM-CSF and IL-4 during 6 days. Then MoDC were activated in presence of ATP (Sigma, 0.25-1 mM) during 24 hours and DC activation were assessed by analyzing CD80, CD83 and HLA-DR expression by flow cytometry. […] LPS (Invivogen, 10 ng/ml) was used as positive control. To assess resulting effect of ATP-mediated DC activation on CD4 T cells activation, ATP-activated DC were washed and then incubated with allogenic CD4 T cells (ratio 1 MoDC/4 T cells) for a mixed lymphocytes reaction (MLR) during 5 days. T cells activation and proliferation were analyzed through CD25 expression and Cell Trace Violet dilution by flow cytometry (FIG. 8).

[1] = tested on: CHO cells expressing cynomolgus CD39 (CHO-cyCD39); assay: Antibody titration on CHO-cyCD39 cells by flow cytometry; format: binding, cynomolgus (Macaca fascicularis)
Description: (§1) Cells were incubated with various concentration of unlabeled anti-CD39 antibody from 30 μg/ml to 5×10^−4 μg/ml, for 30 minutes at 4° C. After washes, cells were incubated with Goat anti-mouse H+L labeled secondary antibody for 30 min at 4° C.

[2] = target: T1, soluble recombinant human CD39 protein (Homo sapiens, UniProt P49961); assay: Inhibition of the enzymatic (ATPase) activity of soluble CD39, Cell Titer Glo; format: biochemical
T1 construct: made in house; host or cells: CHO cells
T1 sequence (P49961 with tags, fused parts or gaps): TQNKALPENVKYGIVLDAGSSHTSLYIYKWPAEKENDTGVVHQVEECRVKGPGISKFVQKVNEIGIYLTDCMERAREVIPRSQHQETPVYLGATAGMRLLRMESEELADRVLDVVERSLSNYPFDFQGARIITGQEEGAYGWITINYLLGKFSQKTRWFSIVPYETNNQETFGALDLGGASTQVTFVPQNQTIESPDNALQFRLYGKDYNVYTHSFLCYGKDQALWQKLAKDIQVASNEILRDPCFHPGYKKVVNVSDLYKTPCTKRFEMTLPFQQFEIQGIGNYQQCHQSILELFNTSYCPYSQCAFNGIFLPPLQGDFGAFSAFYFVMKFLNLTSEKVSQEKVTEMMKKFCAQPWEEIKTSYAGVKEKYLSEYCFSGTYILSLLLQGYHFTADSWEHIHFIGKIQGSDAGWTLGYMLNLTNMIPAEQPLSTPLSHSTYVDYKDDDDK
Description: The ability of an antibody to inhibit soluble recombinant human CD39 protein can be tested by detecting ATP after incubating test antibody with soluble CD39 protein (e.g., the CD39 protein having the amino acid sequence of SEQ ID NO: 5, as produced in Example 1, optionally further comprising a purification tag or other functional or non-functional non-CD39-derived amino acid sequence). See, e.g., Example 1. Briefly, ATP can be quantified using the Cell Titer Glo™ (Promega), in an assay in which dose ranges of test antibody are incubated with soluble recombinant human CD39 protein described in Example 1, for 1 hour at 37° C. 20 μM ATP are added to the plates for 30 additional minutes at 37° C. before addition of CTG reagent. Emitted light is quantified using an Enspire™ luminometer after a short incubation period of 5 min in the dark.
The inhibition by antibodies of the enzymatic activity of soluble CD39 protein produced was evaluated using Cell Titer Glo™ (Promega, reference G7571) that allows assessment of ATP hydrolysis through use of a reagent that generates a luminescent signal proportional to the amount of ATP present. In this way, inhibition of the soluble-CD39-mediated ATP hydrolysis can be assessed. Briefly, dose ranges of anti-CD39 antibodies from 100 μg/ml to 6×10^−3 μg/ml were incubated with 400 ng/ml of soluble recombinant human CD39 protein having the amino acid sequence described in the Methods section (SEQ ID NO: 54), for 1h at 37° C. 20 μM ATP was added to the plates for 30 additional minutes at 37° C. before addition of CTG (Cell Titer Glo) reagent. Emitted light was quantified using an Enspire™ luminometer after a short incubation period of 5 min in the dark. Anti-CD39 antibody efficacy was determined by comparing emitted light in presence of antibody with ATP alone (maximal light emission) and ATP together with soluble CD39 protein (minimal light emission).

[3] = target: T2, CHO cells expressing human CD39 (CHO-huCD39) (Homo sapiens, UniProt P49961); assay: Antibody titration on CHO-huCD39 cells by flow cytometry; format: binding
T2 construct: expressed in transfected cells; host or cells: CHO cells
T2 sequence (P49961 1-510): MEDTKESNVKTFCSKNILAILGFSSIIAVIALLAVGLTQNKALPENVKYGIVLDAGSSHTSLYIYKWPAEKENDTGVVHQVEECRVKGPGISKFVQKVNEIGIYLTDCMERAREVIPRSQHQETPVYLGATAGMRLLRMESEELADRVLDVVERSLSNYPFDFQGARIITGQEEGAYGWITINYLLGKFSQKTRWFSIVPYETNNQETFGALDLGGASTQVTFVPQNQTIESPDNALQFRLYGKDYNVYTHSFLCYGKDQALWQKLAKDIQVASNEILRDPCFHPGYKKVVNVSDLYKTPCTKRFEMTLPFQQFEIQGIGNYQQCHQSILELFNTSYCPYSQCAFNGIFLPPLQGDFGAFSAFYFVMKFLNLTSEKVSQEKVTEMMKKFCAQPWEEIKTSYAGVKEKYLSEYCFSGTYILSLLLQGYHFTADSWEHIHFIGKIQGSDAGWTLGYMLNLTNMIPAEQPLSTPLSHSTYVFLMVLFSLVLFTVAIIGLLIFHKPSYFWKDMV
Description: as §1

[4] = target: T3, Human CD39-L4 (NTPDase5, ENTPD5) (Homo sapiens, UniProt O75356); assay: ELISA titration on CD39-L4; format: binding
T3 sequence (O75356 25-428): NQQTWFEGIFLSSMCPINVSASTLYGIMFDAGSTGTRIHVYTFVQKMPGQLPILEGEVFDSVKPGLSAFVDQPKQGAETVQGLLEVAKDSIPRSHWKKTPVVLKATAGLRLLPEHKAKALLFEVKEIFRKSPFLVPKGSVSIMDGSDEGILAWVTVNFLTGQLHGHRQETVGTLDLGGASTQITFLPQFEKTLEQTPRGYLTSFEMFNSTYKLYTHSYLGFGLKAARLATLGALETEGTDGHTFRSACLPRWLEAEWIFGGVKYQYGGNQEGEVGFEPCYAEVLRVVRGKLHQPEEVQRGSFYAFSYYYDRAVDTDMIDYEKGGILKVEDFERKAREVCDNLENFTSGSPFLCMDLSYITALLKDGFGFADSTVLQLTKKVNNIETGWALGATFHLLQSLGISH
Description: Wells were washed in TBS Tween 20, and further saturated 2H at RT in TBS Blocking buffer. Dose range concentration of primary antibody was incubated in TBS blocking buffer for 2h at RT. Wells were washed in TBS Tween 20. […] Optical density was measured on Enspire™ at OD=450.

B1: I-394: anti-CD39 antibody, VH SEQ ID NO: 6, VL SEQ ID NO: 7; heavy/light chains SEQ ID NOS: 52 and 53 (antibody)
heavy: EVQLQQSGPELVKPGASVKMSCKASGYTFTDYNMHWVKQSHGRTLEWIGYIVPLNGGSTFNQKFKGRATLTVNTSSRTAYMELRSLTSEDSAAYYCARGGTRFAYWGQGTLVTVSAASTKGPSVFPLAPSSKSTSGGTAALGCLVKDYFPEPVTVSWNSGALTSGVHTFPAVLQSSGLYSLSSVVTVPSSSLGTQTYICNVNHKPSNTKVDKRVEPKSCDKTHTCPPCPAPEAEGAPSVFLFPPKPKDTLMISRTPEVTCVVVDVSHEDPEVKFNWYVDGVEVHNAKTKPREEQYNSTYRVVSVLTVLHQDWLNGKEYKCKVSNKALPSSIEKTISKAKGQPREPQVYTLPPSREEMTKNQVSLTCLVKGFYPSDIAVEWESNGQPENNYKTTPPVLDSDGSFFLYSKLTVDKSRWQQGNVFSCSVMHEALHNHYTQKSLSLSPGK
light: DIVLTQSPASLAVSLGQRATISCRASESVDNFGVSFMYWFQQKPGQPPNLLIYGASNQGSGVPARFRGSGSGTDFSLNIHPMEADDTAMYFCQQTKEVPYTFGGGTKLEIKRTVAAPSVFIFPPSDEQLKSGTASVVCLLNNFYPREAKVQWKVDNALQSGNSQESVTEQDSKDSTYSLSSTLTLSKADYEKHKVYACEVTHQGLSSPVTKSFNRGEC
modifications: Chimeric homo sapiens mus musculus
T cell proliferation and activation (CD25 expression, Cell Trace Violet dilution) in MLR (allogenic CD4 T cells): higher T cell proliferation and activation | binding to cells expressing cynomolgus CD39 [1]: bound; also recorded: binds | maximum inhibition achieved, soluble CD39 protein [2]: 74.9% | inhibition of the enzymatic (ATPase) activity of soluble CD39 protein ([2]; 400 ng/ml soluble CD39, 20 μM ATP): strong inhibition; also recorded: inhibits; also recorded: highly potent | inhibition of ATPase activity of soluble CD39 when antibody is spiked into negative hybridoma supernatants ([2]; added to hybridoma supernatant): did not restore | inhibition of ATPase activity of soluble CD39 after purification from the negative supernatant ([2]; purified with Protein A coated beads): again able to inhibit | binding to cells expressing human CD39 [3]: bound; also recorded: binds | binding to CD39-L4 in ELISA [4]: not to any of the human isoforms
